Source: publication PMC4861070 (ACS chemical biology, 2016)
Square brackets hold non-standard residues; d marks the D form. Ends that are not written are not given here. pY = N[C@@H](Cc1ccc(OP(=O)(O)O)cc1)C(=O)O; Lys(Me3) = C[N+](C)(C)CCCC[C@H](N)C(=O)O; pS = N[C@@H](COP(=O)(O)O)C(=O)O

T1: BRPF1 PWWP domain (aa 1064–1214) (UniProt P55201 1064-1214)
T1 sequence (looked up): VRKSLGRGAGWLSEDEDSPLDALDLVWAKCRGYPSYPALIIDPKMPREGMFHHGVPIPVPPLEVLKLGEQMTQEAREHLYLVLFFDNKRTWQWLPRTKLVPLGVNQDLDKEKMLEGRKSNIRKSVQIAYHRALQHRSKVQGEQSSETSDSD


Columns and labels:
[1] = molecular target: H3K9me3S10ph peptide (Homo sapiens) (UniProt P68431); settings: cited from earlier work
[2] = molecular target: H3K9me3 peptide (Homo sapiens) (UniProt P68431); settings: cited from earlier work
[3] = molecular target: Tudor domain of human PHF1 (aa 14–87) (human, UniProt O43189 14-87); assay: NMR titration
Sequence of Tudor domain of human PHF1 (aa 14–87) (O43189 14-87): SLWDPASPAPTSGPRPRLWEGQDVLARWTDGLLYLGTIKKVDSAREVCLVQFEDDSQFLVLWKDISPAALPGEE

[4] = molecular target: T1, BRPF1 PWWP domain (aa 1064–1214); assay: NMR titration

| Molecule | Kd [3] | Kd [4] | Kd [1] | Kd [2] |
| --- | --- | --- | --- | --- |
| ATRX ADD (from UniProt P46100) |  |  | 0.19 µM | 0.11 µM |
| KSAPSTGGV[Lys(Me3)]KPHRYRPGT (peptide, UniProt P84243 28-46, looked up) [histone H3.3K36me3 peptide (residues 27–45 of H3.3)] | 37 µM | 3900 µM |  |  |

Second part, led by results:

| Kd [3] | Kd [4] | Molecule | Kd [1] | Kd [2] |
| --- | --- | --- | --- | --- |
| 260 µM | 2300 µM | KSAP[pS]TGGV[Lys(Me3)]KPHRYRPGT (peptide, UniProt P84243 28-46, looked up) [histone H3.3S31phK36me3 peptide (residues 27–45 of H3.3)] |  |  |
| 480 µM | 1800 µM | KSAPSTGGV[Lys(Me3)]KPHR[pY]RPGT (peptide, UniProt P84243 28-46, looked up) [histone H3.3K36me3Y41ph peptide (residues 27–45 of H3.3)] |  |  |
